Test: label from the status in PepcDB records

Sequence | protein production
MKITMRVSVPLSPRQAASQPVPSHRCLHVWPFIRPSLLRPELTMPSGCRCLNLVCLLCILGATSQPARADDCSSHCDLAHGCCAPDGSCRCDPGWEGLHCERCVRMPGCQHGTCHQPWQCICHSGWAGKFCDKDEHICTSQSPCQNGGQCVYDGGGEYHCVCLPGFHGRGCERKAGPCEQAGFPCRNGGQCQDNQGFALNFTCRCLAGFMGAHCEVNVDDCLMRPCANGATCIDGINRFSCLCPEGFAGRFCTINLDDCASRPCQRGARCRDRVHDFDCLCPSGYGGKTCELVLPAPEPASVGTPQMPTSAVVVPATGPAPHSAGAGLLRISVKEVVRRQESGLGESSLVALVVFGSLTAALVLATVLLTLRAWRRGICPTGPCCYPAPHYAPARQDQECQVSMLPAGFPLSPDLPPEPGKTTAL | failed
MAELKSLAKDTAIYGASSIIGKFLNYFLVPIYTFSLPAASGGYGVITKMYAIVALLLVVLTFGMETGFFRFANKGDDDPKKVYSVSLLMVGGVSLLFLLLCLVFLNPIAGLMGYSEHPWYLGMMLIVLAMDAIQAIPFAYLRYKKRPIKFAGLKLLFIFVSILLNILYFVVMKGDDVGVAFLINLICSFVVMLGLIPEFREFRYCPDRLLMKRMLYYSFPILILGVAGIVNQVGDKIIFPFVYPDKVEADVQLGIYSAATKIAMIMAMITQAFRFAYEPFVFGKSKDKDNKRIYAQAMKFFIIFTLLAFLAVMFYLDILRYIIAEDYWEGLRVVPIVMIAEMFMGIYFNLSFWYKLTDDTRWGAYFSIIACLTVVLMNIFLIPVYGYVACAWAGFTGYAIAMLLSYFVGQKKYPIAYDLRGIGCYVGLAIILYLIGEWIPIHNTVLLLAFRTVLLLLFIAYIIKRDLPLSQIPVINRIIKKK | not failed
MDNMAIADRRRLRRKLTFWRVAAVLLLVVGAFGLYRFFWQGPQQSAKPHIARIEVSGLITDNTELLERLDKIAKSDNVKGLIVSISSPGGTTYGGERIFKVIRSVAEKKPVVSDVRTLAASAGYMIASAGDVIVAGETSITGSIGVIFQYPQLGQLMEKLGVSLQEIKSSPMKAEPSPFHEAPEEAKTMIRAMVMDSYGWFVDLVADRRKLPREEVLKLADGSIFTGRQALANKLVDTLGGEKEVRAYFETRGVAKDLPIVEWRAPSSNSPFALFSVAQIAKLLGYDDLIPFAGPSQLGADKLFLDGLVSVWQVEPRLEHHHHHH | not failed
MSLKYGHVAWIQQILDGSYADAMNTLKNITVDDSKKGESLSECELHLNVAKLSSLLVEKDNLDINTLRKIQYNLDTIDAEKNISNKLKKGEVQICKRFKNGSIREVFNILVEELKSTTVVNLSDLVELYSMLDDEESLFIPLRLLSVDGNLLNFEVKKFLNALVWRRIVLLNASNEGDKLLQHIVKRVFDEELPKNNDFPLPSVDLLCDKSLLTPEYISETYGRFPIDQNAIREEIYEEISQVETLNSDNSLEIKLHSTIGSVAKEKNYTINYETNTVEYEGHHHHHH | not failed
MTKTVEMVITGAQVLNVYTREFEATSLWIDHGRIISNLRDEPYIAAQHVDATGQWIVPGMIDAHVHMESSMVAPSELGKVLLQHGVTTIATDPHELANVAGLEHHHHHH | failed
DISEELDYERGRYLDAMIDNHKYTGKARAIIYGQPELALALAKVCFENGVNVKLIALGAKNKILEEALKEEIKSQREEVLVLDDTDFDTIEKYAKEFNVNLFIGNSDGRRMASRLGIEIIRVGFPIHDRV | failed
MATRRTFLRGAISLTLIGSTGQLRALAHPRANTWALPIDTQAQADLTRYVDVFIGSSGHGHTFPGATLPFGMVQLSPDTDNAVWDACSGYHASNGSIMGFSHTHLSGTGIGDMLDILLMPGTGDVKLAPGPLNAPETGYRQRYDHAEEVASPGYYQVRLKDTDIVAELTATARTGLHRYHFPQHQAGHLLLDLSHAMQDNPSTPPRLRDVELSIVDTRTLLGGRRVYQWAKGRYLFFAMRLSRPFARAQLYSNDAPLTADTRQVQGVCLKAALHFPDAGEAPLLVKVGLSAVSAANALANLDAELPDFDFARVHAEAVAAWENALGRARIATDNPAQRRIFYTSLYHSLLAPTLFSDVDGRYRGMDLQVHTLPTGYHNYSTYSLWDTYRALHPLLTLVQSDRVPDLLQCLVRGAAECPDGVGIWPLQGVETGCMIGYHSAVALAEGYTKGFTGIDYAAAWPHYRKRAMQDHAHGLRYYRRLGYIPSDKVDESVSRTLEYAYDDWACAHLATAAGAHSEARVLRARSRHYRHVFNRDSGFMQPRLENGAWATPFDPRALGHLKQWHDFTECNAWQATFLNQHDVYGYMALFGGADHFAAKLDALFSALSELPPGAPPDIDGMVGQYAHGNEPSHHIAYLYVYAGQAYKTQAMVRRLLREQYHDGRDGLSGNEDCGQMSAWFVLSALGMYAVDPVSGIYVIGSPLFPYAELDVGRGRKLRILARHTSASNVYVQALRWNGSPMTRAWLRHTELAGGGTLEFEMGAQPNLDFGTHPQDLPPSFMALQPVPKHA | failed
MAEHGETTEDGDSEIDYEFLAELSALLGVDAVQLAKSQEEEEHKERMKMKKGFNSQMRSEAKRLKTFETYDTFRSWTPQEMAAAGFYHTGVRLGVQCFCCSLILFGNSLRKLPIERHKKLRPECEFLLGKDVGNIGKYDIRVKRPEKMLRGGKARYHEEEARLESFEDWPFYAHGTSPRVLSAAGFVFTGKRDTVQCFSCGGSLGNWEEGDDPWKEHAKWFPKCEFLQSKISSEEIAQYIQGYGGFVHVTGEHFVNSWVRRELPMVSGRKDIVQCFSCGGCMENWAEGDDPIQEHNKFFPK | failed
MGSSHHHHHHSSGRENLYFQGMNIGRLRDRITIQTLKQTRDITGEILETWEDGHTLWASVNMVSSKEAISSGAELAIGTVRIWIRYRKDINATSRIKVSTGPLAGRVLNIIGQPLPDAARTRLEILCREGAEK | not failed
MSLRSEQEMMDIFLDFALNDERIRLVTLEGSRTNRNIPPDNFQDYDISYFVTDVESFKENDQWLEIFGKRIMMQKPEDMELFPPELGNWFSYIILFEDGNKLDLTLIPIREAEDYFANNDGLVKVLLDKDSFINYKVTPNDRQYWIKRPTAREFDDCCNEFWMVSTYVVKGLARNEILFAIDHLNEIVRPNLLRMMAWHIASQKGYSFSMGKNYKFMKRYLSNKEWEELMSTYSVNGYQEMWKSLFTCYALFRKYSKAVSEGLAYKYPDYDEGITKYTEGIYCSVKEGHHHHHH | not failed
MAKEIKFSDSARNLLFEGVRQLHDAVKVTMGPRGRNVLIQKSYGAPSITKDGVSVAKEIELSCPVANMGAQLVKEVASKTADAAGDGTTTATVLAYSIFKEGLRNITAGANPIEVKRGMDKAAEAIINELKKASKKVGGKEEITQVATISANSDHNIGKLIADAMEKVGKDGVITVEEAKGIEDELDVVEGMQFDRGYLSPYFVTNAEKMTAQLDNAYILLTDKKISSMKDILPLLEKTMKEGKPLLIIAEDIEGEALTTLVVNKLRGVLNIAAVKAPGFGDRRKEMLKDIAILTGGQVISEELGLSLENAEVEFLGKAGRIVIDKDNTTIVDGKGHSHDVKDRVAQIKTQIASTTSDYDKEKLQERLAKLSGGVAVIKVGAASEVEMKEKKDRVDDALSATKAAVEEGIVIGGGAALIRAAQKVHLNLHDDEKVGYEIIMRAIKAPLAQIAINAGYDGGVVVNEVEKHEGHFGFNASNGKYVDMFKEGIIDPLKVERIALQNAVSVSSLLLTTEATVHEIKEEKAAPAMPDMGGMGGMGGMGGMM | failed
MNLIINDKTASSSVGQTIGKAARLNHAHVGYVCGGHGLCQACYITVQEGADCLAPLTDVEKAFLSPRQIAAGGRMACQATIAKEGTVKVLSRPEEVRRMVFSNPFQLIGYAADMGKDTAQQIVPGVQNLIGRIQRGEMGGKDALGDMIESIQGAAGLVVEAIQQGPMALPIPFKEQIADLISKLPLPQIQLPSISLPQLPSISFPQLPFSLPKLPFSLPFLPQQPQATASLEKVTITVQPPAKD | failed
MRMNILLAFKAEPDAGMLAEKEWQAAQGNSGPDVSLLRSLLGADEQAAAALLLAQRKNGTSMSLTALSMGDERALHWLRYLMALGFEDAVLLETAADLRFAPEFVARHIAEWQYQNPLELIITGCQSSEGQNGQTPFLLAEMLGWPCFTQVERFTLDAPFITLEQRTENGLRCCRVRLPAVIAVRQCGEVALPVPGMRQRMAAGKAEIIRKTVAAEMPAMQCLQLARAEQRRGATLIDGQTVAEKAQKLWQYYLCQRMQP | failed

From a protein production outcome set (Wang et al. 2014)
